# According to PMC10540216, “Activity Guided Azide-methyllysine Photo-trapping for Substrate Profiling of Lysine Demethylases” (Journal of the American Chemical Society, 2023):
# B1: SC23A_HUMAN (protein, UniProt Q15436 2-765, looked up)
# Protein transport protein …: TTYLEFIQQNEERDGVRFSWNVWPSSRLEATRMVVPVAALFTPLKERPDLPPIQYEPVLCSRTTCRAVLNPLCQVDYRAKLWACNFCYQRNQFPPSYAGISELNQPAELLPQFSSIEYVVLRGPQMPLIFLYVVDTCMEDEDLQALKESMQMSLSLLPPTALVGLITFGRMVQVHELGCEGISKSYVFRGTKDLSAKQLQEMLGLSKVPLTQATRGPQVQQPPPSNRFLQPVQKIDMNLTDLLGELQRDPWPVPQGKRPLRSSGVALSIAVGLLECTFPNTGARIMMFIGGPATQGPGMVVGDELKTPIRSWHDIDKDNAKYVKKGTKHFEALANRAATTGHVIDIYACALDQTGLLEMKCCPNLTGGYMVMGDSFNTSLFKQTFQRVFTKDMHGQFKMGFGGTLEIKTSREIKISGAIGPCVSLNSKGPCVSENEIGTGGTCQWKICGLSPTTTLAIYFEVVNQHNAPIPQGGRGAIQFVTQYQHSSGQRRIRVTTIARNWADAQTQIQNIAASFDQEAAAILMARLAIYRAETEEGPDVLRWLDRQLIRLCQKFGEYHKDDPSSFRFSETFSLYPQFMFHLRRSSFLQVFNNSPDESSYYRHHFMRQDLTQSLIMIQPILYAYSFSGPPEPVLLDSSSILADRILLMDTFFQILIYHGETIAQWRKSGYQDMPEYENFRHLLQAPVDDAQEILHSRFPMPRYIDTEHGGSQARFLLSKVNPSQTHNNMYAWGQESGAPILTDDVSLQVFMDHLKKLAVSSAA
# B2: DDX1_HUMAN (protein, UniProt Q92499 1-740, looked up)
# ATP-dependent RNA helicase …: MAAFSEMGVMPEIAQAVEEMDWLLPTDIQAESIPLILGGGDVLMAAETGSGKTGAFSIPVIQIVYETLKDQQEGKKGKTTIKTGASVLNKWQMNPYDRGSAFAIGSDGLCCQSREVKEWHGCRATKGLMKGKHYYEVSCHDQGLCRVGWSTMQASLDLGTDKFGFGFGGTGKKSHNKQFDNYGEEFTMHDTIGCYLDIDKGHVKFSKNGKDLGLAFEIPPHMKNQALFPACVLKNAELKFNFGEEEFKFPPKDGFVALSKAPDGYIVKSQHSGNAQVTQTKFLPNAPKALIVEPSRELAEQTLNNIKQFKKYIDNPKLRELLIIGGVAARDQLSVLENGVDIVVGTPGRLDDLVSTGKLNLSQVRFLVLDEADGLLSQGYSDFINRMHNQIPQVTSDGKRLQVIVCSATLHSFDVKKLSEKIMHFPTWVDLKGEDSVPDTVHHVVVPVNPKTDRLWERLGKSHIRTDDVHAKDNTRPGANSPEMWSEAIKILKGEYAVRAIKEHKMDQAIIFCRTKIDCDNLEQYFIQQGGGPDKKGHQFSCVCLHGDRKPHERKQNLERFKKGDVRFLICTDVAARGIDIHGVPYVINVTLPDEKQNYVHRIGRVGRAERMGLAISLVATEKEKVWYHVCSSRGKGCYNTRLKEDGGCTIWYNEMQLLSEIEEHLNCTISQVEPDIKVPVDEFDGKVTYGQKRAAGGGSYKGHVDILAPTVQELAALEKEAQTSFLHLGYLPNQLFRTF
# B3: SRC8_HUMAN (protein, UniProt Q14247 1-550, looked up)
# Src substrate cortactin: MWKASAGHAVSIAQDDAGADDWETDPDFVNDVSEKEQRWGAKTVQGSGHQEHINIHKLRENVFQEHQTLKEKELETGPKASHGYGGKFGVEQDRMDKSAVGHEYQSKLSKHCSQVDSVRGFGGKFGVQMDRVDQSAVGFEYQGKTEKHASQKDYSSGFGGKYGVQADRVDKSAVGFDYQGKTEKHESQRDYSKGFGGKYGIDKDKVDKSAVGFEYQGKTEKHESQKDYVKGFGGKFGVQTDRQDKCALGWDHQEKLQLHESQKDYKTGFGGKFGVQSERQDSAAVGFDYKEKLAKHESQQDYSKGFGGKYGVQKDRMDKNASTFEDVTQVSSAYQKTVPVEAVTSKTSNIRANFENLAKEKEQEDRRKAEAERAQRMAKERQEQEEARRKLEEQARAKTQTPPVSPAPQPTEERLPSSPVYEDAASFKAELSYRGPVSGTEPEPVYSMEAADYREASSQQGLAYATEAVYESAEAPGHYPAEDSTYDEYENDLGITAVALYDYQAAGDDEISFDPDDIITNIEMIDDGWWRGVCKGRYGLFPANYVELRQ
# B4: ZYX_HUMAN (protein, UniProt Q15942 2-572, looked up)
# Zyxin: AAPRPSPAISVSVSAPAFYAPQKKFGPVVAPKPKVNPFRPGDSEPPPAPGAQRAQMGRVGEIPPPPPEDFPLPPPPLAGDGDDAEGALGGAFPPPPPPIEESFPPAPLEEEIFPSPPPPPEEEGGPEAPIPPPPQPREKVSSIDLEIDSLSSLLDDMTKNDPFKARVSSGYVPPPVATPFSSKSSTKPAAGGTAPLPPWKSPSSSQPLPQVPAPAQSQTQFHVQPQPQPKPQVQLHVQSQTQPVSLANTQPRGPPASSPAPAPKFSPVTPKFTPVASKFSPGAPGGSGSQPNQKLGHPEALSAGTGSPQPPSFTYAQQREKPRVQEKQHPVPPPAQNQNQVRSPGAPGPLTLKEVEELEQLTQQLMQDMEHPQRQNVAVNELCGRCHQPLARAQPAVRALGQLFHIACFTCHQCAQQLQGQQFYSLEGAPYCEGCYTDTLEKCNTCGEPITDRMLRATGKAYHPHCFTCVVCARPLEGTSFIVDQANRPHCVPDYHKQYAPRCSVCSEPIMPEPGRDETVRVVALDKNFHMKCYKCEDCGKPLSIEADDNGCFPLDGHVLCRKCHTARAQT
# B5: XRN2_HUMAN (protein, UniProt Q9H0D6 1-950, looked up)
# 5'-3' exoribonuclease 2: MGVPAFFRWLSRKYPSIIVNCVEEKPKECNGVKIPVDASKPNPNDVEFDNLYLDMNGIIHPCTHPEDKPAPKNEDEMMVAIFEYIDRLFSIVRPRRLLYMAIDGVAPRAKMNQQRSRRFRASKEGMEAAVEKQRVREEILAKGGFLPPEEIKERFDSNCITPGTEFMDNLAKCLRYYIADRLNNDPGWKNLTVILSDASAPGEGEHKIMDYIRRQRAQPNHDPNTHHCLCGADADLIMLGLATHEPNFTIIREEFKPNKPKPCGLCNQFGHEVKDCEGLPREKKGKHDELADSLPCAEGEFIFLRLNVLREYLERELTMASLPFTFDVERSIDDWVFMCFFVGNDFLPHLPSLEIRENAIDRLVNIYKNVVHKTGGYLTESGYVNLQRVQMIMLAVGEVEDSIFKKRKDDEDSFRRRQKEKRKRMKRDQPAFTPSGILTPHALGSRNSPGSQVASNPRQAAYEMRMQNNSSPSISPNTSFTSDGSPSPLGGIKRKAEDSDSEPEPEDNVRLWEAGWKQRYYKNKFDVDAADEKFRRKVVQSYVEGLCWVLRYYYQGCASWKWYYPFHYAPFASDFEGIADMPSDFEKGTKPFKPLEQLMGVFPAASGNFLPPSWRKLMSDPDSSIIDFYPEDFAIDLNGKKYAWQGVALLPFVDERRLRAALEEVYPDLTPEETRRNSLGGDVLFVGKHHPLHDFILELYQTGSTEPVEVPPELCHGIQGKFSLDEEAILPDQIVCSPVPMLRDLTQNTVVSINFKDPQFAEDYIFKAVMLPGARKPAAVLKPSDWEKSSNGRQWKPQLGFNRDRRPVHLDQAAFRTLGHVMPRGSGTGIYSNAAPPPVTYQGNLYRPLLRGQAQIPKLMSNMRPQDSWRGPPPLFQQQRFDRGVGAEPLLPWNRMLQTQNAAFQPNQYQMLAGPGGYPPRRDDRGGRQGYPREGRKYPLPPPSGRYNWN
# B6: SYAM_HUMAN (protein, UniProt Q5JTZ9 24-985, looked up)
# Alanine--tRNA ligase, …: GLSHRPLSSEPPAAKASAVRAAFLNFFRDRHGHRLVPSASVRPRGDPSLLFVNAGMNQFKPIFLGTVDPRSEMAGFRRVANSQKCVRAGGHHNDLEDVGRDLSHHTFFEMLGNWAFGGEYFKEEACNMAWELLTQVYGIPEERLWISYFDGDPKAGLDPDLETRDIWLSLGVPASRVLSFGPQENFWEMGDTGPCGPCTEIHYDLAGGVGAPQLVELWNLVFMQHNREADGSLQPLPQRHVDTGMGLERLVAVLQGKHSTYDTDLFSPLLNAIQQGCRAPPYLGRVGVADEGRTDTAYRVVADHIRTLSVCISDGIFPGMSGPPLVLRRILRRAVRFSMEILKAPPGFLGSLVPVVVETLGDAYPELQRNSAQIANLVSEDEAAFLASLERGRRIIDRTLRTLGPSDMFPAEVAWSLSLCGDLGLPLDMVELMLEEKGVQLDSAGLERLAQEEAQHRARQAEPVQKQGLWLDVHALGELQRQGVPPTDDSPKYNYSLRPSGSYEFGTCEAQVLQLYTEDGTAVASVGKGQRCGLLLDRTNFYAEQGGQASDRGYLVRAGQEDVLFPVARAQVCGGFILHEAVAPECLRLGDQVQLHVDEAWRLGCMAKHTATHLLNWALRQTLGPGTEQQGSHLNPEQLRLDVTTQTPLTPEQLRAVENTVQEAVGQDEAVYMEEVPLALTAQVPGLRSLDEVYPDPVRVVSVGVPVAHALDPASQAALQTSVELCCGTHLLRTGAVGDLVIIGDRQLSKGTTRLLAVTGEQAQQARELGQSLAQEVKAATERLSLGSRDVAEALRLSKDIGRLIEAVETAVMPQWQRRELLATVKMLQRRANTAIRKLQMGQAAKKTQELLERHSKGPLIVDTVSAESLSVLVKVVRQLCEQAPSTSVLLLSPQPMGKVLCACQVAQGAMPTFTAEAWALAVCSHMGGKAWGSRVVAQGTGSTTDLEAALSIAQTYALSQL
# B7: RBM14_HUMAN (protein, UniProt Q96PK6 1-669, looked up)
# RNA-binding protein 14: MKIFVGNVDGADTTPEELAALFAPYGTVMSCAVMKQFAFVHMRENAGALRAIEALHGHELRPGRALVVEMSRPRPLNTWKIFVGNVSAACTSQELRSLFERRGRVIECDVVKDYAFVHMEKEADAKAAIAQLNGKEVKGKRINVELSTKGQKKGPGLAVQSGDKTKKPGAGDTAFPGTGGFSATFDYQQAFGNSTGGFDGQARQPTPPFFGRDRSPLRRSPPRASYVAPLTAQPATYRAQPSVSLGAAYRAQPSASLGVGYRTQPMTAQAASYRAQPSVSLGAPYRGQLASPSSQSAAASSLGPYGGAQPSASALSSYGGQAAAASSLNSYGAQGSSLASYGNQPSSYGAQAASSYGVRAAASSYNTQGAASSLGSYGAQAASYGAQSAASSLAYGAQAASYNAQPSASYNAQSAPYAAQQAASYSSQPAAYVAQPATAAAYASQPAAYAAQATTPMAGSYGAQPVVQTQLNSYGAQASMGLSGSYGAQSAAAATGSYGAAAAYGAQPSATLAAPYRTQSSASLAASYAAQQHPQAAASYRGQPGNAYDGAGQPSAAYLSMSQGAVANANSTPPPYERTRLSPPRASYDDPYKKAVAMSKRYGSDRRLAELSDYRRLSESQLSFRRSPTKSSLDYRRLPDAHSDYARYSGSYNDYLRAAQMHSGYQRRM
# B8: SFPQ_HUMAN (protein, UniProt P23246 1-707, looked up)
# Splicing factor, proline- and …: MSRDRFRSRGGGGGGFHRRGGGGGRGGLHDFRSPPPGMGLNQNRGPMGPGPGQSGPKPPIPPPPPHQQQQQPPPQQPPPQQPPPHQPPPHPQPHQQQQPPPPPQDSSKPVVAQGPGPAPGVGSAPPASSSAPPATPPTSGAPPGSGPGPTPTPPPAVTSAPPGAPPPTPPSSGVPTTPPQAGGPPPPPAAVPGPGPGPKQGPGPGGPKGGKMPGGPKPGGGPGLSTPGGHPKPPHRGGGEPRGGRQHHPPYHQQHHQGPPPGGPGGRSEEKISDSEGFKANLSLLRRPGEKTYTQRCRLFVGNLPADITEDEFKRLFAKYGEPGEVFINKGKGFGFIKLESRALAEIAKAELDDTPMRGRQLRVRFATHAAALSVRNLSPYVSNELLEEAFSQFGPIERAVVIVDDRGRSTGKGIVEFASKPAARKAFERCSEGVFLLTTTPRPVIVEPLEQLDDEDGLPEKLAQKNPMYQKERETPPRFAQHGTFEYEYSQRWKSLDEMEKQQREQVEKNMKDAKDKLESEMEDAYHEHQANLLRQDLMRRQEELRRMEELHNQEMQKRKEMQLRQEEERRRREEEMMIRQREMEEQMRRQREESYSRMGYMDPRERDMRMGGGGAMNMGDPYGSGGQKFPPLGGGGGIGYEANPGVPPATMSGSMMGSDMRTERFGQGGAGPVGGQGPRGMGPGTPAGYGRGREEYEGPNKKPRF
# System: KDM4A-I71AzF
# Assay: CASI: photo-crosslinking with HEK293T cell extracts, StrepTactin enrichment and LC-MS/MS proteomics;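 note: lysates from HEK293T cells pretreated with a KDM4 inhibitor to raise proteome methylation, affinity-purified after ±UV, gel-resolved, trypsin-digested, with exclusive unique peptides per protein averaged per condition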
# Type: binding, human
# Settings: sheet "Final results but with 0.01"
row,Molecule,Fold change (+UV/-UV)
1,B1,0.5
2,B2,1.333
3,B3,0.8
4,B4,0
5,B5,2.5
6,B6,0.625
7,B7,2
8,B8,0.9
